Here are results for 167 variants from the RNAGym collection of RNA variant scans (doi:10.7554/elife.80360).

To fix the notation:
B1: Hammerhead Ribozyme (parent)
chain: ACCGGAUGUGCUUUCCGGUCUGAUGAGUCCGUGAGGACGAAACAG

In the data set the parent is B1. Description: self-cleavage, relative activity (ratio to wild type); higher = more cleavage; co-transcriptional.
On to U14G G39U, for which the self-cleavage was found to be 0.359.

Regarding U14G G39C, the self-cleavage is 0.41.

As to U14G G18U, the self-cleavage was 0.522.

Consider U14G G18A, for which the self-cleavage was 0.54.

Consider U14G G18C, for which the self-cleavage was 0.533.

With U14C G17U, the self-cleavage was found to be 0.561.

Consider U14C G17A, for which the self-cleavage was found to be 0.494.

For U14C G17C, the self-cleavage is 0.342.

As to U14A G18U, the self-cleavage came out at 0.644.

Turning to U14A G18C, the self-cleavage is 0.456.

For U14A G18A, the self-cleavage turned out to be 0.327.

For the variant U14C G18C, the self-cleavage came to 0.351.

Regarding U14C G18U, the self-cleavage worked out at 0.413.

With U14C G18A, the self-cleavage came out at 0.409.

As to U14G A37G, the self-cleavage was 0.782.

In the case of U14G A37C, the self-cleavage is 0.777.

As for U14G A37U, the self-cleavage is 0.566.

Regarding U14G A26G, the self-cleavage worked out at 0.223.

As for U14G A26U, the self-cleavage was 0.569.

U14G A26C: the self-cleavage was 0.764.

In the case of U14A A42U, the self-cleavage was found to be 0.272.

As to U14A A42C, the self-cleavage is 0.296.

As to U14A A42G, the self-cleavage is 0.279.

Turning to U14G A41G, the self-cleavage amounted to 0.3.

On to U14G A41U, for which the self-cleavage came out at 0.367.

Take U14G A41C: the self-cleavage was 0.34.

Regarding U14A G17C, the self-cleavage was 0.375.

On to U14A G17U, for which the self-cleavage amounted to 0.564.

As for U14A G17A, the self-cleavage was found to be 0.586.

With U14C G25A, the self-cleavage was determined as 0.305.

With U14C G25C, the self-cleavage is 0.228.

Consider U14C G25U, for which the self-cleavage is 0.32.

U14G G27U: the self-cleavage is 0.515.

Consider U14G G27A, for which the self-cleavage turned out to be 0.757.

For the variant U14G G27C, the self-cleavage is 0.618.

Take U14C G27U: the self-cleavage worked out at 0.331.

For U14C G27C, the self-cleavage turned out to be 0.54.

For U14C G27A, the self-cleavage came to 0.602.

With U14G C43U, the self-cleavage worked out at 0.547.

In the case of U14G C43G, the self-cleavage was found to be 0.416.

Consider U14G C43A, for which the self-cleavage was determined as 0.304.

With U13G G35U, the self-cleavage is 0.873.

For U13G G35A, the self-cleavage is 0.916.

U13G G35C: the self-cleavage worked out at 0.819.

For U14C A23G, the self-cleavage was found to be 0.268.

For the variant U14C A23C, the self-cleavage was determined as 0.373.

In the case of U14C A23U, the self-cleavage was found to be 0.341.

On to U14C U32A, for which the self-cleavage came to 0.825.

For U14C U32C, the self-cleavage is 0.61.

For U14C U32G, the self-cleavage is 0.546.

As to U14G G36U, the self-cleavage worked out at 0.565.

As for U14G G36A, the self-cleavage was 0.729.

On to U14G G36C, for which the self-cleavage is 0.377.

For U14G A44C, the self-cleavage turned out to be 0.681.

In the case of U14G A44U, the self-cleavage was determined as 0.609.

As to U14G A44G, the self-cleavage was 1.32.

As for U13G U24G, the self-cleavage is 0.654.

On to U13G U24C, for which the self-cleavage is 0.83.

For the variant U13G U24A, the self-cleavage came to 1.36.

For the variant U14A U28A, the self-cleavage turned out to be 0.656.

For U14A U28G, the self-cleavage turned out to be 0.555.

On to U14A U28C, for which the self-cleavage came out at 0.923.

On to U13G G18U, for which the self-cleavage worked out at 0.701.

Take U13G G18A: the self-cleavage is 0.642.

With U13G G18C, the self-cleavage amounted to 0.696.

Consider U14A G39U, for which the self-cleavage is 0.315.

Turning to U14A G39A, the self-cleavage is 0.359.

On to U14A G39C, for which the self-cleavage came to 0.276.

Take U14C A41U: the self-cleavage was found to be 0.296.

For U14C A41C, the self-cleavage is 0.301.

U14C A41G: the self-cleavage worked out at 0.312.

For U14A C38G, the self-cleavage came out at 0.574.

For U14A C38U, the self-cleavage stood at 0.926.

On to U14A C38A, for which the self-cleavage came out at 0.54.

Consider U14A U21C, for which the self-cleavage came to 0.586.

Regarding U14A U21G, the self-cleavage is 0.595.

On to U14A U21A, for which the self-cleavage was determined as 0.542.

For the variant U13G G36A, the self-cleavage worked out at 0.628.

Turning to U13G G36C, the self-cleavage came out at 0.709.

With U13G G36U, the self-cleavage was found to be 0.658.

Turning to U14A C30G, the self-cleavage came out at 0.624.

Regarding U14A C30A, the self-cleavage turned out to be 0.838.

Turning to U14A C30U, the self-cleavage came to 0.96.

In the case of U14A A44C, the self-cleavage worked out at 0.414.

Consider U14A A44G, for which the self-cleavage amounted to 1.06.

Take U14A A44U: the self-cleavage came out at 0.417.

U14G A40U: the self-cleavage came out at 0.356.

As for U14G A40G, the self-cleavage turned out to be 0.366.

On to U14G A40C, for which the self-cleavage came to 0.52.

For U14A G33C, the self-cleavage was determined as 0.987.

As to U14A G33U, the self-cleavage was 0.872.

Take U14A G33A: the self-cleavage was 0.751.

Consider U14A G31U, for which the self-cleavage is 1.31.

U14A G31A: the self-cleavage amounted to 0.81.

Regarding U14A G31C, the self-cleavage was 1.01.

As to U14G G17C, the self-cleavage worked out at 0.27.

For the variant U14G G17U, the self-cleavage turned out to be 0.485.

On to U14G G17A, for which the self-cleavage was found to be 0.544.

On to U14C G39U, for which the self-cleavage is 0.294.

U14C G39C: the self-cleavage came out at 0.337.

As for U14C G39A, the self-cleavage was 0.349.

As to U13G C30A, the self-cleavage came to 0.933.

With U13G C30U, the self-cleavage was 0.786.

Turning to U13G C30G, the self-cleavage was 0.593.

For U14A A23C, the self-cleavage is 0.345.

Take U14A A23U: the self-cleavage came out at 0.272.

With U14A A23G, the self-cleavage came to 0.351.

U14G G31C: the self-cleavage is 0.967.

As for U14G G31A, the self-cleavage is 0.929.

Take U14G G31U: the self-cleavage is 0.51.

U14C U24C: the self-cleavage amounted to 0.889.

For the variant U14C U24G, the self-cleavage was 0.816.

Regarding U14C U24A, the self-cleavage came to 0.726.

As to U13G U19G, the self-cleavage is 0.314.

In the case of U13G U19C, the self-cleavage came out at 0.767.

In the case of U13G U19A, the self-cleavage worked out at 0.301.

For U14C C15A, the self-cleavage was determined as 0.72.

As to U14C C15U, the self-cleavage amounted to 0.996.

With U14C C15G, the self-cleavage worked out at 0.794.

As for U14A G36A, the self-cleavage was 0.485.

For U14A G36U, the self-cleavage was determined as 0.528.

For U14A G36C, the self-cleavage is 0.319.

Consider U14A U24G, for which the self-cleavage worked out at 1.12.

U14A U24C: the self-cleavage worked out at 1.2.

U14A U24A: the self-cleavage stood at 0.627.

On to U13G U28A, for which the self-cleavage was 0.673.

U13G U28C: the self-cleavage worked out at 1.01.

Turning to U13G U28G, the self-cleavage is 0.973.

In the case of U14A A26G, the self-cleavage was 0.343.

For U14A A26U, the self-cleavage worked out at 0.65.

In the case of U14A A26C, the self-cleavage was found to be 0.47.

For U14G U19G, the self-cleavage came out at 0.422.

In the case of U14G U19C, the self-cleavage came to 0.715.

For the variant U14G U19A, the self-cleavage turned out to be 0.383.

Regarding U14A A37C, the self-cleavage was 0.815.

U14A A37G: the self-cleavage was found to be 0.811.

Consider U14A A37U, for which the self-cleavage amounted to 0.618.

In the case of U14C A26C, the self-cleavage came to 0.371.

U14C A26G: the self-cleavage stood at 0.359.

On to U14C A26U, for which the self-cleavage was 0.444.

With U14A G25U, the self-cleavage is 0.297.

U14A G25C: the self-cleavage turned out to be 0.288.

As to U14A G25A, the self-cleavage was found to be 0.28.

U14G C38U: the self-cleavage worked out at 0.796.

With U14G C38A, the self-cleavage is 0.435.

For U14G C38G, the self-cleavage worked out at 0.603.

Regarding U13G G45A, the self-cleavage amounted to 0.719.

Take U13G G45U: the self-cleavage came out at 0.702.

Consider U13G G45C, for which the self-cleavage is 0.596.

As to U14C A34U, the self-cleavage was determined as 0.67.

In the case of U14C A34G, the self-cleavage worked out at 0.682.

Consider U14C A34C, for which the self-cleavage stood at 0.791.

For the variant U14G G22A, the self-cleavage came to 0.314.

Take U14G G22U: the self-cleavage stood at 0.394.

On to U14G G22C, for which the self-cleavage amounted to 0.301.

On to U14C C43U, for which the self-cleavage was determined as 0.337.

On to U14C C43G, for which the self-cleavage was 0.309.

For the variant U14C C43A, the self-cleavage was determined as 0.279.

On to U14C G36U, for which the self-cleavage stood at 0.455.

Take U14C G36C: the self-cleavage was determined as 0.31.

For the variant U14C G36A, the self-cleavage is 0.552.

Turning to U14A C43G, the self-cleavage stood at 0.334.

Turning to U14A C43U, the self-cleavage was 0.41.

As to U14A C43A, the self-cleavage stood at 0.333.

Consider U14C A42G, for which the self-cleavage came to 0.249.

For the variant U14C A42C, the self-cleavage turned out to be 0.33.

As for U14C A42U, the self-cleavage stood at 0.423.
